Assay results from patent US20240254225A1 (INOTREM, published 2024).
Where a chain is given by its changes, count along the chain named.

B1: anti-hTREM-1 Fab fragment INO-10F (Fab, V domains shown)
VH: AVQLQQSVAALVRPGASVKLSCTASGFNIKNTYIHWVKQRPEQGLEWIGRIDPANGNTKYAPKFQGKATITADTSSDTAYLQLSSLTSDDTAIYYCTGHYGSTMDYWGQGTSVTVSS
VL: not shown
notes: Recombinant chimeric Fab (murine variable regions) made in CHO cells and purified on HisTrap Excel; also called INO-10 Fab
B2: humanized anti-TREM-1 Fab fragment INO-10F-4 (Fab, V domains shown)
VH: EVQLVESGGALVKPGGSLRLSCAASGFNIGNTYIHWVRQAPGKGLEWVGRIDPAGGRTKYAPKVKGRFTISADDSKNTAYLQMNSLKTEDTAVYYCTGHRGGTMDYWGQGTLVTVSS
VL: EIVLTQSPATLSLSPGERATLSCRASQSVSNYGISFLNWYQQKPGQAPRLLIYAAEYRGRGIPARFSGSGSGTDFTLTISSLEPEDFAVYYCQQSSNVPYTFGQGTKVEIK
notes: Fab
B3: humanized anti-TREM-1 Fab fragment INO-10F-6 (Fab, V domains shown)
VH: B2 VH with A79L
VL: B2 VL with G59A
notes: Fab
B4: humanized anti-TREM-1 Fab fragment INO-10F-3 (Fab, V domains shown)
VH: B2 VH with G30D, V48I, A61D, D74T, R100Y
VL: B2 VL with Q27E, S30D, S96R, N97H
notes: Fab
B5: humanized anti-TREM-1 Fab fragment INO-10F-2 (Fab, V domains shown)
VH: B2 VH with V48I, A61S, K65Q, D73P, D74T
VL: B2 VL with E56S, R58Q, G59K, V98F, Y100W
notes: Fab

Each binder was assayed against T1, recombinant cynomolgus monkey TREM-1 (cynomolgus monkey, UniProt A0A2K5VHG8 21-204) (assay: SPR, Fab immobilised, cynomolgus TREM-1 injected; replicate 1).
T1 construct: Soluble recombinant protein injected as SPR analyte; construct not described; also called cTREM-1; cynomolgus TREM-1
T1 sequence: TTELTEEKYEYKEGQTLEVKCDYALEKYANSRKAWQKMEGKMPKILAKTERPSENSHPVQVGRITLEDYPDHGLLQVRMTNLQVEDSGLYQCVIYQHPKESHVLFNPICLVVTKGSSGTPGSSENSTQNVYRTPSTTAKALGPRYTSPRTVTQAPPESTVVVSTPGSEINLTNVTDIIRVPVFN
Method: (§1) Surface plasmon resonance (SPR): in order to evaluate the interaction kinetics for TREM-1 antibodies or Fabs to hTREM-1 (human TREM-1) and cTREM-1 (cynomolgus monkey TREM-1), surface plasmon resonance (SPR) assays were carried out (Biacore™ T200, GE Healthcare Biosciences). The anti-human Fc antibodies (Cytiva) were immobilized on CM5 sensor chip in order to evaluate IgG1 affinities and Fabs were directly immobilized on the chip. Immobilization experiments were performed at 25° C. using HBS-EP+1× running buffer (10 mM HEPES, 150 mM NaCl, 3 mM EDTA, 0.05% surfactant P20, pH 7.4). The anti-human Fc antibodies or Fabs were diluted in 10 mM sodium acetate at acidic pH before the immobilization procedure using amine coupling on the dextran matrix of the sensor chips. […] Following these injections, ethanolamine was injected to deactivate the surface. The immobilization wizard was used to obtain several thousand of immobilized RU (resonance units). The immobilization level was chosen in order to have a proper covering of the sensor chip surface. […] Binding of hTREM-1 or cTREM-1 proteins was conducted by injecting analyte over all flow cells. […] The concentrations were evaluated using the Single Cycle Kinetics method. This approach consists of a sequential injection of increasing concentration of the analyte, with a single regeneration step using a magnesium chloride buffer (Cytiva) at the end of the cycle. Binding affinity of TREM-1 antibodies or Fabs with hTREM-1 or cTREM-1 was quantified by determination of the equilibrium dissociation constant (KD) determined by measurement of the kinetics of complex formation and dissociation.

Question: How did the Kd turn out when B1 was run?
Answer: The Kd was 57.9 nM.

Question: For B2, which Kd is on record?
Answer: Its Kd is 24.8 nM.

Question: Which Kd does the source give for B3 here?
Answer: The Kd was 60.1 nM.

Question: How did the Kd turn out when B4 was run?
Answer: Its Kd is 7.6 nM.

These binders were tested against T1, recombinant cynomolgus monkey TREM-1 (assay: SPR, Fab immobilised, cynomolgus TREM-1 injected; replicate 2).
Method: as §1

Question: How did the Kd turn out when B1 was run?
Answer: Its Kd is 66.6 nM.

Question: For B2, which Kd is on record?
Answer: The Kd was 24.4 nM.

Question: How did the Kd turn out when B3 was run?
Answer: The Kd was 53.4 nM.

Question: How did the Kd turn out when B5 was run?
Answer: Its Kd is 28.5 nM.

Question: How did the Kd turn out when B4 was run?
Answer: The Kd was 7.68 nM.

These binders were tested against T1, recombinant cynomolgus monkey TREM-1 (assay: SPR, Fab immobilised, cynomolgus TREM-1 injected; average).
Method: as §1

Question: For B1, which Kd is on record?
Answer: Its Kd is 62.2 nM.

Question: With B2 as the binder, how does the Kd read?
Answer: Its Kd is 24.6 nM.

Question: With B3 as the binder, how does the Kd read?
Answer: The Kd was 56.8 nM.

Question: For B5, which Kd is on record?
Answer: Its Kd is 28.3 nM.

Question: Which Kd does the source give for B4 here?
Answer: Its Kd is 7.64 nM.
